According to the nanobody polyreactivity screen of Harvey et al. (2022):

Assay: yeast display, Sf9 membrane polyspecificity reagent, FACS + sequencing; frameworks hold sequencing errors
Procedure, shortened: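 Nanobodies from a synthetic yeast display library (Saccharomyces cerevisiae BJ5465), induced 36–48 hours with galactose, were stained 1 hour at 4 °C with 10% biotinylated, detergent-solubilized Sf9 membrane reagent, enriched on streptavidin microbeads, then FACS-sorted. Anti-HA (expression) and streptavidin (reagent binding) fluorescence set low and high (top ~1%) gates. Polyreactivity labels come from the gate of origin. Genes were colony-PCR amplified, MiSeq 2 × 250 sequenced and filtered by CDR length.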
With “QVQLVESGGGLVQAGGSLRLSCAASGFTFDSYAMGWYRQAPGKERELVAAITWDGGSTYYADSVKGRYTISRDNAKNTVYLQMNSLKPEETAVYYCAADFGTISIDVYSWMDYWGQGTQVTVSS” the “polyreactivity (PSR sort gate)” value was “low polyreactivity”.
With “QVQLVESGGGLVQAGGSLRLSCAASGFTFDTNAMGWYRQAPGKERELVAAISWGGDTTYYADSVKGRFTISRDNAKNTVYLQMNSLKPEDTAVYYCNVYWYDWWGYDYWGQGTQVTVSS” the “polyreactivity (PSR sort gate)” value was “high polyreactivity”.
For “QVQLVESGGGLVQAGGSLRLSCAASGFTFDWNAMGWYRQAPGKERELVAAISSSTGRTYYADSVKGRFTISRDNAKNTVYLQMNSLKPEDTAVYYCAASLGGRAGNYWGQGTQVTVSS”, the “polyreactivity (PSR sort gate)” value was “high polyreactivity”.
With “QVQLVESGGGLVQAGGSLRLSCAASGFTFDWNGMGWYRQAPGKEREFVAGITWSGTSTYADSVKGRFTISRDNAKNTVYLQMNSLKPEDTAVYYCAAVSSKGNRHEYDYWGQGTQVTVSS” the “polyreactivity (PSR sort gate)” value was “low polyreactivity”.
For “QVQLVESGGGLVQAGGSLRLSCAASGFTFDYNAMGWYRQAPGKEREFDAAISTGGSTKYADSVKGRFTISRDNAKNTVYLQMNSLKPEDTAVYYCNKQTTDRGFYDWKWSGFDYWGQGTQVTVSS”, the “polyreactivity (PSR sort gate)” value was “low polyreactivity”.
In the case of “QVQLVESGGGLVQAGGSLRLSCAASGFTFDYNAMGWYRQAPGKERELVAGITSGGRTYYADSVKGRFTISRDNAKNTVYLQMNSLKPEDTAVYYCAATPEPPAYGTPLVPYSYDYWGQGTQVTVSS”, the “polyreactivity (PSR sort gate)” value is reported as “low polyreactivity”.
For “QVQLVESGGGLVQAGGSLRLSCAASGFTFDYYAMGWYRQAPGKERELVAAISKSGGSTYYADSVKGRFTISRDNAKNTVYLQLISLKPEDTAVYYCAAYTYVRSKNKGGDYWGQGTQVTVSS”, the “polyreactivity (PSR sort gate)” value was “high polyreactivity”.
With “QVQLVESGGGLVQAGGSLRLSCAASGFTFDYYAMGWYRQAPGKERELVAAISRAGSTNYADSVKGRFTISRDNAKNTVYLQMNSLKPEDTAVYYCNKGYHSWSRLSQFGWSYDYWGQGTQVTVSS” the “polyreactivity (PSR sort gate)” value was “high polyreactivity”.
For “QVQLVESGGGLVQAGGSLRLSCAASGFTFDYYFMGWYRQAPGKERELVAAISLRSGRTYYADSVKGRFTISRDNAKNTVYLQMKSLKPEDTAVYYCAAESRGVGAYYYWGQGTQVTVSS”, the “polyreactivity (PSR sort gate)” value was “high polyreactivity”.
In the case of “QVQLVESGGGLVQAGGSLRLSCAASGFTFEENAMGWYRQAPGKERELVAAINWSGGNTYYADSVKGRFTISRDNAKNTVYLQMNSLKPEDTAVYYCAAEYRSWSWRMDYWGQGTQVTVSS”, the “polyreactivity (PSR sort gate)” value is reported as “high polyreactivity”.
With “QVQLVESGGGLVQAGGSLRLSCAASGFTFEKNAMGWYRQAPGKERELVAAISRGGSTYADSVKGRFTISRDNAKNTVYLQMNSLKPEDTAVYYCAADTVYIFSSAINGEFGYWGQGTQVTVSS” the “polyreactivity (PSR sort gate)” value was “low polyreactivity”.
With “QVQLVESGGGLVQAGGSLRLSCAASGFTFEKNAMGWYRQAPGKERELVAAITSGGSTYYADSVKGRFTISRDNAKNTVYLQMNSLKPEDTAVYYCNAYYTYRFNYWGQGTQVTVSS” the “polyreactivity (PSR sort gate)” value was “high polyreactivity”.
For “QVQLVESGGGLVQAGGSLRLSCAASGFTFEKYVMGWYRQAPGKDREFVAAITRSGGRTYYADSVKGRFTISRDNAKNTVSLQMNSLKPEDTAVYYCAAAFSRSDTGGGSSGQGTQVTVSS”, the “polyreactivity (PSR sort gate)” value was “high polyreactivity”.
For “QVQLVESGGGLVQAGGSLRLSCAASGFTFERNTMGWYRPAPGKERELVATITRRGTSTYYADSVKGRFTISRDNAKNTVYLQMNSLKPEDTAVYYCARGQYSHRSQAGMDYWGQGTQVTVSS”, the “polyreactivity (PSR sort gate)” value was “high polyreactivity”.
In the case of “QVQLVESGGGLVQAGGSLRLSCAASGFTFERYAMGSYRQAPGKERELVAAISSRGGGTYYADSVKGRFTISRENAKNTVFLQMNSLKPEDTAVYYCNRPYDYSYNYWGQGTQVTVSS”, the “polyreactivity (PSR sort gate)” value is reported as “high polyreactivity”.
In the case of “QVQLVESGGGLVQAGGSLRLSCAASGFTFESYTMGWYRQAPGKESELVAAINSGTSTYYADSVKGRFTISRDNAKNTVYLQMNSLKPEDTAVYYCNARRYRRYRKYDYWGQGTQVTVSS”, the “polyreactivity (PSR sort gate)” value is reported as “high polyreactivity”.
In the case of “QVQLVESGGGLVQAGGSLRLSCAASGFTFEVYAMGRYRQAPGKERELVAAITSSGGRTYYADSVKGRFTISRDYAKNTVYLQMNSLKPEDTAGYYCAAYVSYEYGYWGQGSQVTVSS”, the “polyreactivity (PSR sort gate)” value is reported as “high polyreactivity”.
With “QVQLVESGGGLVQAGGSLRLSCAASGFTFEWNTMGWYRQAPGKERELVARINWSSGRTYYADSVKGRFTISRDNAKNTVYLQMNSLKPEDTAVYYCAASPYHSAYQNMDYWGQGTQVTVSS” the “polyreactivity (PSR sort gate)” value was “high polyreactivity”.
In the case of “QVQLVESGGGLVQAGGSLRLSCAASGFTFFAYPMGWYRQAPGKERELVAGISRSGGRTYYADSVKGRFTISRDNAKNTVYLQMNSLKPEDTAVYYCNAVVRRSYLLEYDFCGQGTQVTVSS”, the “polyreactivity (PSR sort gate)” value is reported as “high polyreactivity”.
For “QVQLVESGGGLVQAGGSLRLSCAASGFTFFDYVMGWYRQAPGKERELVAAISRNVGSTYYADSVKGRFTISRDNAKTTVYLQMNSLKPEDTAVYYCAAEPPPYEYDYWGQGTQVTVSS”, the “polyreactivity (PSR sort gate)” value was “high polyreactivity”.
In the case of “QVQLVESGGGLVQAGGSLRLSCAASGFTFFEDNAMGWYRQAPGKERELVAAITSGGSTNYADSVKGRFTFSRDNAKNTVYLQMNSLKPEDTAVYYCAKDRVPLKTRFYYFPWGYDYWGQGTQVTVSS”, the “polyreactivity (PSR sort gate)” value is reported as “low polyreactivity”.
With “QVQLVESGGGLVQAGGSLRLSCAASGFTFFGYAMGWYRQAPGKERELVATISDTGGSTYADSVKGRFTISRDNAKNTVYLQMNSLKPEDTAVYYCNARSVFYSMDYWGQGTQVTVSS” the “polyreactivity (PSR sort gate)” value was “low polyreactivity”.
In the case of “QVQLVESGGGLVQAGGSLRLSCAASGFTFFIYVMGWYRQAPGKEREFVAAISSSGDSTYYADSVKGRFTSSRDNAKNTVYLQMNSLKPEDTAVYYCNAGDKVSSYWYDYWGQGTQVTVSS”, the “polyreactivity (PSR sort gate)” value is reported as “low polyreactivity”.
With “QVQLVESGGGLVQAGGSLRLSCAASGFTFFNYGRGWSRQAHGKERELVAAISSNGGLTYYADSVKGRFTISRDNAKNTVYLQMNSLKPEDTAVYYCATLYYGRVDYDYWGQGTQVTVSS” the “polyreactivity (PSR sort gate)” value was “high polyreactivity”.
For “QVQLVESGGGLVQAGGSLRLSCAASGFTFFRIYAMGWYRQAPGKERELVAAISRSGSTYADSVKGRFTISRDNAKNTVYLQMNSLKPEDTAVYYCNTTLYADSVWYDYWGQGTQVTVSS”, the “polyreactivity (PSR sort gate)” value was “high polyreactivity”.
For “QVQLVESGGGLVQAGGSLRLSCAASGFTFFRYAMGWYRQAPGKERELVAAISYSGGNTYYADSVKGRFTISRDNAKNTVYLQMNSLKPEDTAVYYCNAVHFWKYDYWGQGTQVTVSS”, the “polyreactivity (PSR sort gate)” value was “high polyreactivity”.
With “QVQLVESGGGLVQAGGSLRLSCAASGFTFFSNAMGWYRQAPGKERELVAAITSSGGSTYADSVKGRFTISRDNAKNTVYLQMNSLKPEDTAVYYCAADAEAPPGGFKEYDYWGHGTQVTVSS” the “polyreactivity (PSR sort gate)” value was “low polyreactivity”.
With “QVQLVESGGGLVQAGGSLRLSCAASGFTFFSNAMGWYRQAPGKERELVAAITSSGGSTYADSVKGRFTISRDNAKNTVYLQMNSLKPEDTAVYYCAADAQAPPGGFKEYDYWGQGTQVTVSS” the “polyreactivity (PSR sort gate)” value was “low polyreactivity”.
In the case of “QVQLVESGGGLVQAGGSLRLSCAASGFTFFSNAMGWYRQAPGKERELVASITNDGSTDADSVKGRFTISRDNAKNTVYLQMNSLKPEDTAVYYCAADFYLWRLPVYAQRYFVRGDYWGQGTQVTVSS”, the “polyreactivity (PSR sort gate)” value is reported as “low polyreactivity”.
In the case of “QVQLVESGGGLVQAGGSLRLSCAASGFTFFTYAMGWYRQAPGNERELVAAISSSGDRTYYADSVKGRFTISRDNAKNTVYLQMNSLKPEDTAVYYCAVYKYYHFYYWGQGTQVTVSS”, the “polyreactivity (PSR sort gate)” value is reported as “high polyreactivity”.
For “QVQLVESGGGLVQAGGSLRLSCAASGFTFFYYVMGWYRQAPGKERELVAAISQHGGSTYYADSVKGRFTISRDNAKNTVYLQMNSLKPEDTAVYYSAASPVVNRRGTYGYWGQGTQVTVSS”, the “polyreactivity (PSR sort gate)” value was “high polyreactivity”.
With “QVQLVESGGGLVQAGGSLRLSCAASGFTFGAYAMGSYRQAPGKERELVASINWSGGSTYYADSVKGRFTISRDYAMNTVYFQMNRLKPEDTAVYYCAARESYPGYGYDHWGQGTQVTVSS” the “polyreactivity (PSR sort gate)” value was “low polyreactivity”.
With “QVQLVESGGGLVQAGGSLRLSCAASGFTFGDYAMGWYRQAHGKERELVAAINGRSGSTYYPDSVNGRFTISRDNAKNTVYLQMNSLKPEDTAVYYCATRWRLPSRSNFDYWGQGTQVTLSS” the “polyreactivity (PSR sort gate)” value was “low polyreactivity”.
For “QVQLVESGGGLVQAGGSLRLSCAASGFTFGENAMGWYRQAPGKDRELVAAITSGDGTSYADSVKGRFTISRDNAKNTVYLQMNSLKPEDTAVYSCAADVNYYQHRLYYWGLGTQVTVSS”, the “polyreactivity (PSR sort gate)” value was “low polyreactivity”.
In the case of “QVQLVESGGGLVQAGGSLRLSCAASGFTFGFNDMGWYRQAPGKERELVAAITIGGTTNYADSVKGRFTISRDNAKNTVYLQMNSLKPEDTAVYSCAADTRVVYDEDYWGQGTQVTVSS”, the “polyreactivity (PSR sort gate)” value is reported as “low polyreactivity”.
For “QVQLVESGGGLVQAGGSLRLSCAASGFTFGFYVMGWYRQAPGKERELVAAITVRAGSTYYADSVKGRFTISRDNAKNTVYLQMNSLKPEDTAVYYCAADSYRLYSSIAYYGMYSWGQGTQVTVSS”, the “polyreactivity (PSR sort gate)” value was “high polyreactivity”.
In the case of “QVQLVESGGGLVQAGGSLRLSCAASGFTFGGNVMGWYSQAPGKERELVAAISGAGSKYYADSVKGRFTISRDNAKNTVNLQMNSLKPEDTAVNYCAADDVARYLSGYDYWGQGTQVTVSS”, the “polyreactivity (PSR sort gate)” value is reported as “low polyreactivity”.
For “QVQLVESGGGLVQAGGSLRLSCAASGFTFGGYAMGWYIQAPGKERELVSAISGSGGRTYYADSVKGRFTISRDNAKNTVYLQMNSLKPEDTAVYYCATDGYWQSNGAFYYVARHGGYCGQGTQVTVSS”, the “polyreactivity (PSR sort gate)” value was “low polyreactivity”.
For “QVQLVESGGGLVQAGGSLRLSCAASGFTFGHYAMGWYRQAPGKQRELVAAISYSGVRTYYADSVKGRFTISRDNAKNTVYLQMNSLKPEDTAVYYCNKYPAHYQTRRYDYWGQGTQVTVSS”, the “polyreactivity (PSR sort gate)” value was “high polyreactivity”.
For “QVQLVESGGGLVQAGGSLRLSCAASGFTFGINAMGWSRQAPGKERELVASISSGSSTTYADSVKGRFTISRDNAKNTVYLQMNRLKPEDTAVYYCNARPFHIYWRYDYWGQGTQVTVSS”, the “polyreactivity (PSR sort gate)” value was “low polyreactivity”.
In the case of “QVQLVESGGGLVQAGGSLRLSCAASGFTFGNYAMGWYRQAPGKERELVAVISYSTGSTYYADSVKGRFTISRDNAKNTVYLQMNSLKPEDTAVYYCAKRYRSYYQGYGYWGQGTQVTVSS”, the “polyreactivity (PSR sort gate)” value is reported as “high polyreactivity”.
With “QVQLVESGGGLVQAGGSLRLSCAASGFTFGPNTMGWYRPAPGKERELVAAISARGGRTYYADSVKGRFTISRDNAKNTVYLQMNSLKPEDTAVYYCAAPGYVRTGVTYGGYYWGQGTQVTVSS” the “polyreactivity (PSR sort gate)” value was “high polyreactivity”.
For “QVQLVESGGGLVQAGGSLRLSCAASGFTFGQYAMGWYRQAPVKERELVAAITGSGGRTYYADSVKGRITISRDTAKNTVYLQMNSLKPEDTGVYYCNARVPLRQYSNYYWGQGTQVTVSS”, the “polyreactivity (PSR sort gate)” value was “high polyreactivity”.
